T1: human tissue factor pathway inhibitor (TFPI) (human, UniProt P10646 29-304, limits assumed)
T1 construct: Bought protein; also called human TFPI; hTFPI
T1 sequence (looked up): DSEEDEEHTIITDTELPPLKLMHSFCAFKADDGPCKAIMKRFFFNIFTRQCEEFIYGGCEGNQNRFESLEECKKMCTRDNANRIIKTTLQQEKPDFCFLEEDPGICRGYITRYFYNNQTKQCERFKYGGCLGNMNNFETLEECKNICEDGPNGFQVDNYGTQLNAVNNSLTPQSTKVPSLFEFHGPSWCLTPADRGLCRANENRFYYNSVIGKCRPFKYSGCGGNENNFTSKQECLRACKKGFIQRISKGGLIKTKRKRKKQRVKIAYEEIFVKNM

B1: TP-3C3 Fab (Fab, V domains shown)
VH: QVQLQQSGPGLVKPSQTLSLTCAISGDSVSSNSAAWGWIRQSPGRGLEWLGVIYYRSKWYNDYAVSVKSRITINPDTSKNQFSLQLNSVTPEDTAVYYCARARAKKSGGFDYWGQGTLVTVSS
VL: DIQMTQSPSSLSASVGDRVTITCRASQSINPYLNWYQQKPGKAPKLLIYAASNLQSGVPSRFSGSGSGTDFTLTISSLQPEDFAVYYCQQLDNRSITFGQGTKVEIKR
notes: Human Fab from HuCal Gold, expressed in E. coli TG1
B2: TP-3D3 Fab (Fab, V domains shown)
VH: QVQLVESGGGLVQPGGSLRLSCAASGFTFSSYASWVRQAPGKGLEWVSGISGDGSNTHYADSVKGRFTISRDNSKNTLYLQMNSLRAEDTAVYYCARYDNFYFDVWGQGTLVTVSS
VL: DIELTQPPSVSVAPGQTARISCSGDSLGSKFAHWYQQKPGQAPVLVIYDDSNRPSGIPERFSGSNSGNTATLTISGTQAEDEADYYCSTYTSRSHSYVFGGGTKLTVLG
notes: as for B1
B3: TP-3H2 Fab (Fab, V domains shown)
VH: QVQLVESGGGLVQPGGSLRLSCAASGFTFNSYYMSWVRQAPGKGLEWVSNISSSGSNTNYADSVKGRFTISRDNSKNTLYLQMNSLRAEDTAVYYCARVHYGFDFWGQGTLVTVSS
VL: DIELTQPPSVSVAPGQTARISCSGDKLGKYYAYWYQQKPGQAPVLVIYGDSKRPSGIPERFSGSNSGNTATLTISGTQAEDEADYYCSSAAFGSTVFGGGTKLTVLG
notes: as for B1
B4: TP-3F2 Fab (Fab, V domains shown)
VH: QVQLVESGGGLVQPGGSLRLSCAASGFTFSSYSMHWVRQAPGKGLEWVSGISYSSSFTYYADSVKGRFTISRDNSKNTLYLQMNSLRAEDTAVYYCARALGGGVDYWGQGTLVTVSS
VL: DIELTQPPSVSVAPGQTARISCSGDNLPSKSVYWYQQKPGQAPVLVIYGDNNRPSGIPERFSGSNSGNTATLTISGTQAEDEADYYCQSWTSRPMVVFGGGTKLTVLG
notes: as for B1
B5: TP-3E1 Fab (Fab, V domains shown)
VH: QVQLVESGGGLVQPGGSLRLSCAASGFTFSNYAMTWVRQAPGKGLEWVSVISSVGSNTYYADSVKGRFTISRDNSKNTLYLQMNSLRAEDTAVYYCARPTKAGRTWWWGPYMDVWGQGTLVTVSS
VL: DIELTQPPSVSVAPGQTARISCSGDNIGSYYAYWYQQKPGQAPVLVIYDDSNRPSGIPERFSGSNSGNTATLTISGTQAEDEADYYCQSYDSTGLLVFGGGTKLTVLG
notes: as for B1
B6: TP-4A7 Fab (Fab, V domains shown)
VH: QVQLVESGGGLVQPGGSLRLSCAASGFTFRNYAMNWVRQAPGKGLEWVSVISGSSSYTYYADSVKGRFTISRDNSKNTLYLQMNSLRAEDTAVYYCARADLPYMVFDYWGQGTLVTVSS
VL: B5 VL with N26A, I27L, Y30K, Y31F, Y33H, N52E, S89A, T93G, G94L, L96Y
notes: as for B1

Substitutions are numbered along the chain they refer to.

For the first test, the target named is T2, BSA (bovine, UniProt P02769 25-607).
T2 construct: also called bovine serum albumin
T2 sequence (P02769 25-607 limits assumed): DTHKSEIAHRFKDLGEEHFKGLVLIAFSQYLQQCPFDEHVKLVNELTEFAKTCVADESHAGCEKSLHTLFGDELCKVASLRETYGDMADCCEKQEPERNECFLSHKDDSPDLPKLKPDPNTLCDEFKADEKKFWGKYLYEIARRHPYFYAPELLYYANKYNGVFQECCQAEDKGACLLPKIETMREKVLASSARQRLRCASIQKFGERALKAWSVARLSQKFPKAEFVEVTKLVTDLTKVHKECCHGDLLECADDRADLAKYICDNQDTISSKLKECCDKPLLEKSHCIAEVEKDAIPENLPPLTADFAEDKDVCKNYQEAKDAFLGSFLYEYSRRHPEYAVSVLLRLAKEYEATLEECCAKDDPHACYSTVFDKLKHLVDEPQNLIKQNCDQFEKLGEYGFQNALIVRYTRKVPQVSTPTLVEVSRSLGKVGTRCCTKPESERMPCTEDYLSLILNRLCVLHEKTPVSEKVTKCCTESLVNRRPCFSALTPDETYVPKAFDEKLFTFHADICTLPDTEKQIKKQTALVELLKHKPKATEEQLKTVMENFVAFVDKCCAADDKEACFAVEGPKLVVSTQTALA
As to the kind of experiment: ELISA. How it is done: (§1) To select antibody clones that bind to human TFPI, Fab genes of the phage clones from the second and third round of panning were subcloned into a bacterial expression vector and expressed in E. coli strain TG1. The bacterial lysate was added to the wells of the human TFPI-coated Maxisorp plates. After washing, HRP-conjugated goat anti-human Fab was used as a detection antibody and the plates were developed by adding AmplexRed (Invitrogen) with hydrogen peroxide. A signal of at least five-fold higher than the background was considered as positive. The cross reactivity of the anti-human TFPI antibodies to mouse TFPI was determined by a similar mouse TFPI-binding ELISA. The plates were coated with mouse TFPI (R&D System), BSA and lysozyme. The later two antigens were used as negative controls.
As to B1, the binding result is given as “no binding”.

On to B2, for which the binding result is recorded as “no binding”.

In the case of B3, the binding result was “no binding”.

On to B4, for which the binding result is on record as “no binding”.

In the case of B5, the binding result is reported as “no binding”.

In the case of B6, the binding result is “no binding”.

The next test deals with T1, human tissue factor pathway inhibitor …. As to the kind of experiment: ELISA, Fab lysate on coated human TFPI. The method, then: as §1
(In general: ELISA stands for enzyme-linked immunosorbent assay.)
In the case of B1, the binding result is on record as “binds”.

Turning to B2, the binding result is reported as “binds”.

In the case of B3, the binding result is “binds”.

With B4, the binding result is given as “binds”.

Regarding B5, the binding result is recorded as “binds”.

On to B6, for which the binding result is listed as “binds”.
